From patent US20210355192A1 (YALE UNIVERSITY, published 2021)

Target: the molecule itself
Assay: gel filtration with multi-angle light scattering (self-association)
Description: Multi-angle Light Scattering. PFcR and subdomains (1 mg/ml) in 20 mM Tris-HCl buffer (pH 7.4) containing 0.2M NaCl was applied at 0.5 ml per minute to Superdex200 16/600 (GE, Boston, Mass.) gel filtration column in-line with DAWN HELEOS II light scattering instrument (Wyatt Technology, Santa Barbra, Calif.; laser wavelength 658 nm). Data collection and analysis used Astra software (Wyatt technology).

B1: His-tagged consensus filaggrin subdomain SD150 (other)
chain: SEDSDTQSVSAHGQAGPHQQSHQESARGRSGERSGRSGSFLYQVSTHEQSESAHGRTGPSTGGRQGSHHEQARDSSRHSASQEGQDTIRGHPGSSRGGRQGSHHEQSVDRSGHSGSHHSHTTSQGRSDASRGQSGSRSASRQTRNEEQSG
notes: His-tag kept (thrombin degraded the protein); also called long linker subdomain; not shown: 19-residue N-terminal tag (hexa-his, thrombin site, spacer residues)
binding result: no binding (tested: 1 mg/ml)

B2: His-tagged consensus filaggrin subdomain SD67 (other)
chain: SEDSERWSGSASRNHHGSAQEQSRDGSRHPRSHHEDRAGHGHSADSSRQSGTRHAETSSGGQAASSH
notes: His-tag kept (thrombin degraded the protein); also called short linker subdomain; not shown: 19-residue N-terminal tag (hexa-his, thrombin site, spacer residues)
binding result: no binding (tested: 1 mg/ml)
